Substitutions are numbered along the chain they refer to.
T1: recombinant OSMR protein (Sino Biologicals, 11226-H08H), extracellular domain of OSMR (UniProt Q99650 28-740)
T1 construct: extracellular domain; also called OSMR antigen
T1 sequence (looked up): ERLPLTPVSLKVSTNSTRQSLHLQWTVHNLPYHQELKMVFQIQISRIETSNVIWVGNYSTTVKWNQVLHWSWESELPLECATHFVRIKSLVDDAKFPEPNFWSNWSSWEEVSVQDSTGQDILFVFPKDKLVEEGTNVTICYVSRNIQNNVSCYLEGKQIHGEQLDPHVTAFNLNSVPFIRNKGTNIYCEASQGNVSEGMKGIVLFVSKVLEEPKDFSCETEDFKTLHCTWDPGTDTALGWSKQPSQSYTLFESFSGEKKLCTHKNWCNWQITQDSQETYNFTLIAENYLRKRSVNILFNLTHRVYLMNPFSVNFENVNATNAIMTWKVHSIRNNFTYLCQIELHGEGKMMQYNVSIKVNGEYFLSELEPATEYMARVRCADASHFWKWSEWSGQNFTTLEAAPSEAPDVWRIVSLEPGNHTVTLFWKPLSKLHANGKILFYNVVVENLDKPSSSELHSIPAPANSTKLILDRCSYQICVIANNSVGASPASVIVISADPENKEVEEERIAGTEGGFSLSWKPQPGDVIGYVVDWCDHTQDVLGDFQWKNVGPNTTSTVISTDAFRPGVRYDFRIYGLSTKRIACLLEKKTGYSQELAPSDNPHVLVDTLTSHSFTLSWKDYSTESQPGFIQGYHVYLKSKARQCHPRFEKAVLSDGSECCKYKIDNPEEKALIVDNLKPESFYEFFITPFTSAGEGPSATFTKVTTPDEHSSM

B1: H11 monoclonal antibody (antibody, V domains shown)
VH: EVQLVQSGPEVRKPGASVQISCKASGYTFTTSYIHWVRQAPGQGLEWLGLVNPNDGSTTYTQNFQGRVTMTSDTSTSTVYMELSRVTYADTAVYYCAKDIRDYVWGTYRYESAFDIWGQGTTVTVSS
VL: QAVVTQPPSVSVSPGQTASITCSGDKLGDKYVSWYQQKPGQPPILVMYQDNRRPSGIPERFSGSNSGNTATLTISGTQAMDEADYYCQTWDSSTASYVFGTGTKVTVL
notes: also called H11 mAb
B2: H09 monoclonal antibody (antibody, V domains shown)
VH: EVQLVQSGAEVKKPGASVKVSCKASGYTFTGYYMHWVRQAPGHGLEWMGWINPNSGGTNYAQKFQGRVTMTRDTSISTAYMELSGLRSDDTAVYYCARDKGAWSGSYPGYNWFDPWGQGTLVTVSS
VL: QAVVTQPPSASGTPGQRVTISCSGSSSTIGTNPVNWYRHLPGTAPKLLIYSNNQRPSGVPDRVSGSKSGTSASLAISGLQSEDEADYYCATLDDSLNGYVFGTGTKVTVL
notes: also called H09 mAb
B3: B12 monoclonal antibody (antibody, V domains shown)
VH: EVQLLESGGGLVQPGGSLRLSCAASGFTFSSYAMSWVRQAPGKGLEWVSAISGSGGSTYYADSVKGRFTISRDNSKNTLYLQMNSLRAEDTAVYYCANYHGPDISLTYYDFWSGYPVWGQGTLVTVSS
VL: QSALTQPHSVSESPGKTVTISCTRSSGSIANNHVQWYQQRPGSAPIIVIYEDNQRPSGVPDRFSGSIDSSSNSASLTLSGLKTEDEAAYYCQSYDDNNWVFGGGTKVTVL
notes: also called B12 mAb
B4: B19 monoclonal antibody (antibody, V domains shown)
VH: QVELVESGGGLVQPGRSLRLSCAASGFTFDDYAMHWVRQAPGKGLEWVSGISWNSGSIGYADSVKGRFTISRDNAKNSLYLQMNSLRAEDTALYYCAKDIGVYYYGMDVWGQGTTVSVSS
VL: QSALTQPPSASGTPGQKVTISCSGSSSNIGSSPVNWYQQFPGPAPKLLIHSNNQRPSGVPDRFSGSKSGTSASLAISGLQSDDEADYYCAAWDDSLNAYVFGTGTKVTVL
notes: also called B19 mAb
B5: B04 monoclonal antibody (antibody, V domains shown)
VH: EVQLVQSGGGVVQPGRSLRLSCAASGFTFSSYAMHWVRQAPGKGLEWVAVISYDGSNKYYADSVKGRFTISRDNSKNTLYLQMNSLRAEDTAVYYCARESGVSGDYYYYGMDVWGQGTMVTVSS
VL: AIQLTQSPSSLSASVGDRVTITCQASQDIKNYLNWYQQRPGKAPKLLIYDASNLETGVPSRFSGGGSGTDFTFTISSLQPEDIATYYCQHYDSLPITFGQGTRLEIK
notes: also called B04 mAb
B6: B09 monoclonal antibody (antibody, V domains shown)
VH: QVQLVQSGAEVKKPGSSVKVSCKTSGGTFSSYAISWVRQAPGQGLEWMGGIIPISGTANYAQKLQGRVTITADESTSTAYMELSSLRSEDTAVYYCGRGDYCNGGSCSYTNYYGMDVWGQGTMVTVSS
VL: QAVVTQPPSASGTPGQRSTISCSGGSANIGSNSVHWYQQFPGTAPKLLIFNNNQRPSGVPDRFSGSKSGTSASLAISGLQSEDEADYFCAAWDDSLKGPVFGGGTKVTVL
notes: also called B09 mAb
B7: H12 monoclonal antibody (antibody, V domains shown)
VH: B6 VH with Q1E, A61P, V93M, G97A, M123T, T125I
VL: QSALTQPPSVSVAPGKTAMITCGGTNIRSQNVHWYQQKPGQAPVLVIYWDSSRPSGIPERISGSNSGSTATLTISRVEAGDEADYYCQVWDATRDHVVFGGGTKVTVL
notes: also called H12 mAb
B8: B13 monoclonal antibody (antibody, V domains shown)
VH: B6 VH with Q1E, T24A, S35T, S55V, L64F, V68L, G97A, N103S, M123T
VL: not shown
notes: also called B13 mAb
B9: B01 monoclonal antibody (antibody, V domains shown)
VH: QVQLVQSGAEVKKPGASVKVSCKASGYSFTSYFIHWVRQAPGQGLEWMGIINPAGGNTNYAQRFQGRVTMTRDTSTSTVYMELSSLRSDDTAVYYCARDKDYGEGAFDLWGQGTMVSVSS
VL: QSALTQPPSVSGAPGQRVTISCTGSSSNIGAGYDVHWYQQLPGTAPKLLIYGNSNRPSGVPDRFSGSKSGTSASLAITGLQAEDEADYYCQSYDSSLSGWVFGGGTKVTVL
notes: also called B01 mAb
B10: B02 monoclonal antibody (antibody, V domains shown)
VH: QVELQESGSGLVKPSQTLSLTCAVSGGSISSGGYSWSWIRQPPGKGLEWIGYIYHSGSTYYNPSLKSRVTISVDRSKNQFSLKLSSVTAADTAVYYCARELGYCSSTSCPWGAFDIWGQGTLVSVSS
VL: QAVVTQPPSVSAAPGQKVTISCSGSSSNIGNNYVSWYQQLPGTAPKLLIYDNNKRPSGIPDRFSGSKSGTSATLGITGLQTGDEADYYCGTWDSSLSAVVFGGGTQLTVL
notes: also called B02 mAb
B11: H16 monoclonal antibody (antibody, V domains shown)
VH: QVQLLQSGAEVKKPGSSVKVSCKASGGTFSSYAISWVRQAPGQGLEWMGGIIPIFGTANYAQKFQGRVTITADESTSTAYMELSSLRSEDTAVYYCASSYYGSGTTWFDPWGQGTLVTVSS
VL: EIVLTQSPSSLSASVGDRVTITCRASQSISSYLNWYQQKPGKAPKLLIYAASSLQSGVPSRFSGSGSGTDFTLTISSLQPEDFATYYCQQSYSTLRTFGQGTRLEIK
notes: also called H16 mAb
B12: H14 monoclonal antibody (antibody, V domains shown)
VH: QVQLVQSGAEVKKPGSSVKVSCKASGGTFSSYAISWVRQAPGQGLEWMGGIIPIFGTANYAQKFQGRVTITADESTSTAYMELSSLRSEDTAVYYCAREATPFMILGAFDIWGQGTMVIVSS
VL: not shown
notes: also called H14 mAb
B13: B10 monoclonal antibody (antibody, V domains shown)
VH: QVQLVQSGAEVKKPGASVKVSCKASGYTFTSYYMHWVRQAPGQGLEWMGIINPSGGSTSYAQKFQGRVTMTRDTSTSTVYMELSSLRSEDTAVYYCARDKAHDSSGYYDAFDIWGQGTTVTVSS
VL: QSALTQPPSASGTPGQRVTISCSGSGSNIGSNTVNWYQQLPGTAPRLLIYRNNQRPSGVPDRFSGSKSGTSASLAISGLESEDEADYFCATWDDSLNDYVFATGTQLTVL
notes: also called B010; B10 mAb
B14: B06 monoclonal antibody (antibody, V domains shown)
VH: QVQLVESGGGLVQPGRSLRLSCAASGFTFDDYAMHWVRQAPGKGLEWVSGISWNSGSIGYADSVKGRFTISRDNAKNSLYLQMNSLRAEDTALYYCAKDITSSGWYWFDYWGQGTLVTVSS
VL: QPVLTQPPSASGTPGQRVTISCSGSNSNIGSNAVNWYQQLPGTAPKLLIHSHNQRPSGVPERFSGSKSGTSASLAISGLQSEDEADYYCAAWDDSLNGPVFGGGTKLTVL
notes: also called B06 mAb
B15: H10 monoclonal antibody (antibody, V domains shown)
VH: QVQLVQSGAEVKKPGASVKVSCKASGYTFTSYYMHWVRQAPGQGLEWMGIINPSGGSTSYAQKFQGRVTMTRDTSTSTVYMELSSLRSEDTAVYYCARGTTYDAFDIWGQGTTVSVSS
VL: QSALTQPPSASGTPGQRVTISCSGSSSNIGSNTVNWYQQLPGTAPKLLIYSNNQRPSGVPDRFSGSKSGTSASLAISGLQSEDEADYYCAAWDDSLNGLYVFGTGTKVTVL
notes: also called H10 mAb
B16: B05 monoclonal antibody (antibody, V domains shown)
VH: QVQLVESGGGVVRPGGSLRLSCAASGFTFDDYGMSWVRQAPGKGLEWVSGINWNGGSTGYADSVKGRFTISRDNAKNSLYLQMNSLRAEDTALYHCARVNYDSSGLRGAFDIWGQGTTVTVSS
VL: AIQLTQSPSSLSASVGDRVTITCQASQDISNYLNWYQQKPGKAPKLLIYDASNLETGVPSRFSGSGSGTDFTFTISSLQPEDIATYYCQQYDNLPTFGQGTRLEIK
notes: also called B05 mAb
B17: B07 monoclonal antibody (antibody, V domains shown)
VH: B16 VH with T118M
VL: NIQMTQSPSSLSASVGDRVTITCQASQYISNSLNWYQQKPGKAPNLLLYDATNLEPGVPSRFSGSGSRTDFTLTISSLQPEDIATYYCQQYHNLPPTFGQGTRLEIK
notes: also called B07 mAb
B18: B03 monoclonal antibody (antibody, V domains shown)
VH: B16 VH with T118M, T120I
VL: B5 VL with A1D, Q3V, L4M, K30S, R39K, G65S, H90Q, S93N
notes: also called B03 mAb
B19: B16 monoclonal antibody (antibody, V domains shown)
VH: B16 VH with Q3E
VL: B16 VL with A1D, I2V, L4M
notes: also called B016; B16 mAb
B20: H13 monoclonal antibody (antibody, V domains shown)
VH: QVQLVQSGAEVKKPGASVKVSCKVSGYSFSSHGISWVRQAPGQGLEWMGWISAYNGNTNYAQNLQGRVRMTTDTSTNTAHMELRSLRSDDTAVYYCARDQDEANWNNNYYFDYWGQGTLVTVSS
VL: NFMLTQPHSVSESPGKTVTISCTGSSGSIASKYVQWYQQRPGSAPTSVIYEDNQRPSGVPDRFSGSIDRSSNSASLTISGLKTEDEADYHCQSYDSANRVVFGGGTKVTVL
notes: also called H13 mAb
B21: B08 monoclonal antibody (antibody, V domains shown)
VH: QVQLVQSGGGLVKPGGSLRLSCAASGFTFSSYSMNWVRQAPGKGLEWVSSISSSSSYIYYADSVKGRFTISRDNAKNSLYLQMNSLRAEDTAVYYCARDIALPYYGMDVWGQGTMVTVSS
VL: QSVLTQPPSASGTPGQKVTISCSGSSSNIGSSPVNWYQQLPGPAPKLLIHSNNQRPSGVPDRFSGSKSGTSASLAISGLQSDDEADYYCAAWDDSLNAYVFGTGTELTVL
notes: also called B08 mAb
B22: B17 monoclonal antibody (antibody, V domains shown)
VH: QVELQESGPGLVQPSGTLSLTCAVSGGSMGSSNWWSWVRQPPGKGLEWIGEVYHTGSTNYNPSLRSRVTISVDKSKKQFSLELTSVTAADTAVYFCARDLTVTGSFDIWGQGTMVTVSS
VL: QAVVTQPRSVSGSPGQSVTISCTGSSSDVGAYNYVSWYQQHPGKAPKLIISDVSDWPSGVPDRFSGSKSGNTASLTISGLQADDEADYYCFSYAGNYNWVFGGGTKLTVL
notes: also called B17 mAb

Each binder was assayed against T1, recombinant OSMR protein (Sino …) (assay: screening of full-length IgG1 clones on recombinant OSMR extracellular domain).

binding result	Binder
binds	B1
binds	B2
binds	B3
binds	B4
binds	B5
binds	B6
binds	B7
binds	B8
binds	B9
binds	B10
binds	B11
binds	B12
binds	B13
binds	B14
binds	B15
binds	B16
binds	B17
binds	B18
binds	B19
binds	B20
binds	B21
binds	B22
